Experimental data published in US20110311585A1.

molecular target: HIV-1 envelope glycoprotein gp160, clone 024 from subject 108060, R655Q mutant (HIV-1); assay: cell-based or functional assay

Substance	IC50, pseudovirus neutralization
CD4-IgG (from UniProt P01730 26-205) (Fc fusion)	> 20 µg/mL
broadly neutralizing monoclonal antibody 2F5	3.43 µg/mL
broadly neutralizing monoclonal antibody 4E10	6.55 µg/mL
broadly neutralizing, CD4 blocking monoclonal antibody (MAb) b12	> 20 µg/mL
enfuvirtide (peptide)	0.13 µg/mL
monoclonal antibody 2G12	> 20 µg/mL

molecular target: HIV-1 envelope glycoprotein gp160, clone 005 from subject 108069, Q655R mutant (HIV-1); assay: cell-based or functional assay

Substance	IC50, pseudovirus neutralization	fold increase in neutralization sensitivity against the parental virus
CD4-IgG (from UniProt P01730 26-205) (Fc fusion)	1.08 µg/mL	> 20 fold
broadly neutralizing monoclonal antibody 2F5	0.052 µg/mL	
broadly neutralizing monoclonal antibody 4E10	0.044 µg/mL	
broadly neutralizing, CD4 blocking monoclonal antibody (MAb) b12	> 20 µg/mL	
enfuvirtide (peptide)	0.011 µg/mL	> 17 fold
monoclonal antibody 2G12	> 20 µg/mL	

molecular target: HIV-1 envelope glycoprotein gp160, clone 022 from subject 108060, Q655R mutant (HIV-1); assay: cell-based or functional assay

Substance	IC50, pseudovirus neutralization	fold increase in neutralization sensitivity against wild-type clone 022
CD4-IgG (from UniProt P01730 26-205) (Fc fusion)	0.161 µg/mL	> 125 fold
broadly neutralizing monoclonal antibody 2F5	0.093 µg/mL	30 to 35 fold
broadly neutralizing monoclonal antibody 4E10	0.156 µg/mL	30 to 35 fold
broadly neutralizing, CD4 blocking monoclonal antibody (MAb) b12	> 20 µg/mL	
enfuvirtide (peptide)	0.004 µg/mL	17 fold
monoclonal antibody 2G12	> 20 µg/mL	

molecular target: HIV-1 envelope glycoprotein gp160, clone 005 from subject 108051, Q655R mutant (HIV-1); assay: cell-based or functional assay

Substance	IC50, pseudovirus neutralization
CD4-IgG (from UniProt P01730 26-205) (Fc fusion)	5.21 µg/mL
broadly neutralizing monoclonal antibody 2F5	0.343 µg/mL
broadly neutralizing monoclonal antibody 4E10	1.31 µg/mL
broadly neutralizing, CD4 blocking monoclonal antibody (MAb) b12	> 20 µg/mL
enfuvirtide (peptide)	0.036 µg/mL
monoclonal antibody 2G12	> 20 µg/mL
